From patent publication US20210261648A1 (published 2021)
Changes are numbered by the printed parent chain. Names and notes keep the numbering of the source.

T1: FcγRIIb extracellular domain with C-terminal His tag (human, UniProt P31994 43-217)
T1 construct: extracellular domain; For crystallography it was expressed with kifunensine and trimmed with Endo F1; also called FcgRIIb; FcγRIIb extracellular region; not shown: His tag attached to the C terminus
T1 sequence (looked up): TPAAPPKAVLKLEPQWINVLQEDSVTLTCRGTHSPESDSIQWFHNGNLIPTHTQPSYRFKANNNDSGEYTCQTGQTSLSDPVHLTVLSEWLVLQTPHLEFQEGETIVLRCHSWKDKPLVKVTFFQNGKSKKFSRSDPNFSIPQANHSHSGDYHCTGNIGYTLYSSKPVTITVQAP

T2: FcγRIIa type R extracellular domain with C-terminal His tag (human, UniProt P12318 34-217)
T2 chain: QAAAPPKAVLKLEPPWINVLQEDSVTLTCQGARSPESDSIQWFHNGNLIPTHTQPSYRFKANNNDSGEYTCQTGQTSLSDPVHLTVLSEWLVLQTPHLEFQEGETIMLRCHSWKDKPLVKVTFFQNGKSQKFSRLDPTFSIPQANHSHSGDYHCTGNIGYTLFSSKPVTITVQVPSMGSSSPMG

T3: FcγRIIa type H extracellular domain with C-terminal His tag (human, UniProt P12318 34-217)
T3 construct: extracellular domain; also called FcγRIIaH; FcgRIIaH; not shown: His tag attached to the C terminus
T3 sequence (looked up): T2 chain with R134H

B1: GpH7-G1d/GpL16-k0 (antibody, human IgG1, kappa)
heavy: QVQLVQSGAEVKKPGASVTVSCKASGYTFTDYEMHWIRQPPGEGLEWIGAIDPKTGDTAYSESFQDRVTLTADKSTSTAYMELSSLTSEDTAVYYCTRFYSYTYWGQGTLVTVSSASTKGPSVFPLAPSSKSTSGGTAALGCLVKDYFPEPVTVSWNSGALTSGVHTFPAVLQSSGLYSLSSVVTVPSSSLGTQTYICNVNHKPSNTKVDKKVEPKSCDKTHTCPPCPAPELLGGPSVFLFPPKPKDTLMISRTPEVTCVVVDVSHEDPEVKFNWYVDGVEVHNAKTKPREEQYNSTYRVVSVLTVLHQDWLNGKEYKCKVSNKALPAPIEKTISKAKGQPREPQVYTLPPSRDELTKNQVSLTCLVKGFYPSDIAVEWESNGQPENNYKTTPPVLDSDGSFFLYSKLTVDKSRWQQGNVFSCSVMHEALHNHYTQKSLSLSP
light: DIVMTQSPLSLPVTPGEPASISCQASESLVHSNRNTYLHWYLQKPGQSPQLLIYKVSNRFSGVPDRFSGSGSGTDFTLKISRVEAEDVGVYYCSQNTHVPPTFGQGTKVEIERTVAAPSVFIFPPSDEQLKSGTASVVCLLNNFYPREAKVQWKVDNALQSGNSQESVTEQDSKDSTYSLSSTLTLSKADYEKHKVYACEVTHQGLSSPVTKSFNRGEC
notes: Anti-glypican 3 IgG1 without C-terminal Gly and Lys
B2: GpH7-AP001/GpH7-BF648/GpL16-k0 (antibody, human IgG1, kappa, name in EU numbering)
heavy 1: QVQLVQSGAEVKKPGASVTVSCKASGYTFTDYEMHWIRQPPGEGLEWIGAIDPKTGDTAYSESFQDRVTLTADKSTSTAYMELSSLTSEDTAVYYCTRFYSYTYWGQGTLVTVSSASTKGPSVFPLAPSSKSTSGGTAALGCLVKDYFPEPVTVSWNSGALTSGVHTFPAVLQSSGLYSLSSVVTVPSSSLGTQTYICNVNHKPSNTKVDKKVEPKSCDKTHTCPPCPAPELLGGDSVFLFPPKPKDTLMISRTPEVTCVVVDVSHEDPEVKFNWYVDGVEVHNAKTKPREEQYNSTYRVVSVLTVLHQDWLNGKEYKCKVSNKALPAPIEKTISKAKGQPREPQVYTLPPSRKELTKNQVSLTCLVKGFYPSDIAVEWESNGQPENNYKTTPPVLDSDGSFFLYSKLTVDKSRWQQGNVFSCSVMHEALHNRYTQKSLSLSP
heavy 2: not shown
light: B1 light
notes: Heterodimerized anti-glypican 3 IgG1; P238D in both chains
B3: GpH7-AP001/GpH7-BP061/GpL16-k0 (antibody, human IgG1, kappa, name in EU numbering)
heavy 1: B2 heavy 1
heavy 2: not shown
light: B1 light
notes: Heterodimerized anti-glypican 3 IgG1
B4: IL6R-F652/IL6R-L (antibody, human IgG1, kappa)
heavy: QVQLQESGPGLVKPSETLSLTCAVSGHSISHDHAWSWVRQPPGEGLEWIGFISYSGITNYNPSLQGRVTISRDNSKNTLYLQMNSLRAEDTAVYYCARSLARTTAMDYWGEGTLVTVSSASTKGPSVFPLAPSSKSTSGGTAALGCLVKDYFPEPVTVSWNSGALTSGVHTFPAVLQSSGLYSLSSVVTVPSSSLGTQTYICNVNHKPSNTKVDKKVEPKSCDKTHTCPPCPAPELLGGDSVFLFPPKPKDTLYISRTPEVTCVVVDVSHEDPEVKFNWYVDGVEVHNAKTKPREEQYNSTYRVVSVLTVLHQDWLNGKEYKCKVSNKALPAPIEKTISKAKGQPREPQVYTLPPSRDELTKNQVSLTCLVKGFYPSDIAVEWESNGQPENNYKTTPPVLDSDGSFFLYSKLTVDKSRWQQGNVFSCSVMHEALHYHYTQKSLSLSP
light: not shown
notes: IL6R-F11 (IL6R-G1d with M252Y/N434Y) with P238D
B5: IL6R-PD081/IL6R-L (antibody, human IgG1, kappa)
heavy: B4 heavy with G239E
light: not shown
notes: PD variant; alterations introduced into IL6R-F11
B6: IL6R-PD043/IL6R-L (antibody, human IgG1, kappa)
heavy: B4 heavy with L236Y
light: not shown
notes: as for B5
B7: IL6R-PD080/IL6R-L (antibody, human IgG1, kappa)
heavy: B4 heavy with G239D
light: not shown
notes: as for B5
B8: IL6R-PD095/IL6R-L (antibody, human IgG1, kappa)
heavy: B4 heavy with G239Y
light: not shown
notes: as for B5
B9: IL6R-PD094/IL6R-L (antibody, human IgG1, kappa)
heavy: B4 heavy with G239W
light: not shown
notes: as for B5
B10: IL6R-PD086/IL6R-L (antibody, human IgG1, kappa)
heavy: B4 heavy with G239L
light: not shown
notes: as for B5
B11: IL6R-PD097/IL6R-L (antibody, human IgG1, kappa)
heavy: B4 heavy with S241D
light: not shown
notes: as for B5
B12: IL6R-PD087/IL6R-L (antibody, human IgG1, kappa)
heavy: B4 heavy with G239M
light: not shown
notes: as for B5
B13: IL6R-PD082/IL6R-L (antibody, human IgG1, kappa)
heavy: B4 heavy with G239F
light: not shown
notes: as for B5
B14: IL6R-PD079/IL6R-L (antibody, human IgG1, kappa)
heavy: B4 heavy with G239A
light: not shown
notes: as for B5
B15: IL6R-BP136/IL6R-L (antibody, human IgG1, kappa)
heavy: B4 heavy with Y254M, K328A, Y436N, K441E
light: not shown
notes: Alterations introduced into IL6R-B3
B16: IL6R-BP121/IL6R-L (antibody, human IgG1, kappa)
heavy: B4 heavy with Y254M, K328Q, Y436N, K441E
light: not shown
notes: as for B15
B17: IL6R-BP912/IL6R-L (antibody, human IgG1, kappa)
heavy: B4 heavy with Y254M, A332R, Y436N, K441E
light: not shown
notes: as for B15
B18: IL6R-BP142/IL6R-L (antibody, human IgG1, kappa)
heavy: B4 heavy with Y254M, K328N, Y436N, K441E
light: not shown
notes: as for B15
B19: IL6R-BP126/IL6R-L (antibody, human IgG1, kappa)
heavy: B4 heavy with Y254M, K328L, Y436N, K441E
light: not shown
notes: as for B15
B20: IL6R-BP119/IL6R-L (antibody, human IgG1, kappa)
heavy: B4 heavy with Y254M, K328M, Y436N, K441E
light: not shown
notes: as for B15
B21: IL6R-BP118/IL6R-L (antibody, human IgG1, kappa)
heavy: B4 heavy with Y254M, K328S, Y436N, K441E
light: not shown
notes: as for B15
B22: IL6R-BP911/IL6R-L (antibody, human IgG1, kappa)
heavy: B4 heavy with Y254M, A332K, Y436N, K441E
light: not shown
notes: as for B15
B23: IL6R-BP117/IL6R-L (antibody, human IgG1, kappa)
heavy: B4 heavy with Y254M, K328D, Y436N, K441E
light: not shown
notes: as for B15

target: T1, FcγRIIb extracellular domain with …; assay: SPR binding amount, relative to GpH7-AP001/GpH7-BF648/GpL16-k0

Row | binding amount to FcgRIIb when that of GpH7-AP001/GpH7-BF648 is defined as 100 | Binder
1 | 65 | B1
2 | 100 | B2
3 | 80 | B3

Target: T2, FcγRIIa type R extracellular domain …
Assay: as above

Row | binding amount to FcgRIIaR when that of GpH7-AP001/GpH7-BF648 is defined as 100 | Binder
4 | 515 | B1
5 | 100 | B2

target: T1, FcγRIIb extracellular domain with …; assay: SPR binding amount, relative to IL6R-F652/IL6R-L

Row | relative binding activity to FcγRIIb (IL6R-F652/IL6R-L = 100) | Binder
6 | 100 | B4
7 | 101 | B5
8 | 112 | B6
9 | 127 | B7
10 | 124 | B8
11 | 122 | B9
12 | 112 | B10
13 | 139 | B11
14 | 109 | B12
15 | 108 | B13
16 | 101 | B14

Target: T2, FcγRIIa type R extracellular domain …
Assay: SPR binding amount, relative to IL6R-F652/IL6R-L

Row | relative binding activity to FcγRIIaR (IL6R-F652/IL6R-L = 100) | Binder
17 | 100 | B4
18 | 117 | B5
19 | 175 | B6
20 | 222 | B7
21 | 543 | B8
22 | 593 | B9
23 | 268 | B10
24 | 844 | B11
25 | 196 | B12
26 | 380 | B13
27 | 138 | B14

target: T1, FcγRIIb extracellular domain with …; assay: SPR binding amount, relative to IL6R-BF648/IL6R-L

Row | relative binding activity (IL6R-BF648/IL6R-L = 100) | Binder
28 | 119 | B15
29 | 113 | B16
30 | 103 | B17
31 | 106 | B18
32 | 103 | B19
33 | 110 | B20
34 | 104 | B21
35 | 119 | B22
36 | 118 | B23

target: T3, FcγRIIa type H extracellular domain …; assay: SPR binding amount, relative to IL6R-BF648/IL6R-L

Row | relative binding activity (IL6R-BF648/IL6R-L = 100) | Binder
37 | 103 | B15
38 | 135 | B16
39 | 93 | B17
40 | 97 | B18
41 | 132 | B19
42 | 133 | B20
43 | 128 | B21
44 | 108 | B22
45 | 96 | B23

target: T4, FcγRIa extracellular domain with C-terminal His tag (human, UniProt P12314 16-292); assay: SPR binding amount, relative to IL6R-BF648/IL6R-L
T4 construct: also called FcgRIa; not shown: His tag attached to the C terminus
T4 sequence (P12314 16-292): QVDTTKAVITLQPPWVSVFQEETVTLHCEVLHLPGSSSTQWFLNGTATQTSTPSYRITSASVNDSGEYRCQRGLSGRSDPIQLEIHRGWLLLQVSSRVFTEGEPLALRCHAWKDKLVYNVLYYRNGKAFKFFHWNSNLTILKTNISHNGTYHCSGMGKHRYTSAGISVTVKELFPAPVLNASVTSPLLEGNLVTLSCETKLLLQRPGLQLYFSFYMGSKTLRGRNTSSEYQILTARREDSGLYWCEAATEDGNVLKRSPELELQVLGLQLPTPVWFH

Row | relative binding activity (IL6R-BF648/IL6R-L = 100) | Binder
46 | 117 | B15
47 | 118 | B16
48 | 60 | B17
49 | 98 | B18
50 | 113 | B19
51 | 117 | B20
52 | 101 | B21
53 | 52 | B22
54 | 124 | B23

target: T1, FcγRIIb extracellular domain with …; assay: SPR binding amounts, FcgRIIb divided by FcgRIIaR

Row | amount binding to FcgRIIb/amount binding to FcgRIIaR | Binder
55 | 0.5 | B1
56 | 4 | B2
57 | 2.9 | B3
